Marks after values point to notes of the source that are not given here.
Legend:
[1] = Pharmacokinetics after single subcutaneous administration in mouse; type: in vivo, female C57Bl/6 mice; details: 0.3 mg/kg s.c.; assay FGF21 intact
Experimental: Plasma concentrations and pharmacokinetic parameters of GLP-1RA/FGF21 Fc fusion proteins were determined after single subcutaneous administration of 0.3 mg/kg in solution to female C57Bl/6 mice or male Cynomolgus monkeys using three different methods. Blood samples were obtained at time points from 30 minutes to 168 hours after dosing.
Plasma samples were analyzed for the intact FGF21 part of the fusion proteins with an ELISA kit (F1231-K01, Eagle Biosciences, USA). The assay utilized the two-site sandwich technique with two selected antibodies that bound to different epitopes of human intact FGF21. […] For the detection of the immunocomplex, the well was then incubated with a substrate solution in a timed reaction and then measured in a spectrophotometric microplate reader. […]
The concentration of the full-length GLP-1RA/FGF21 Fc fusion proteins in plasma were determined utilizing an ELISA method. […] Following washing 3 times with 300 µL PBS-T 150 µL read buffer was added to the wells.
Plasma samples were analyzed for the intact GLP-1 part of the fusion proteins with a GLP-1 ELISA method. […] Following washing 3 times with 300 µL PBS-T, 150 µL read buffer was added to the wells.
The pharmacokinetic parameters were calculated by the program WinNonlin 6.4 using a non-compartmental model and linear trapezoidal interpolation calculation. […]

[2] = Thermal shift assay (DSF, Sypro Orange); type: physicochemical; details: Data generated via DSF
Source text: In addition, for some proteins, a thermal shift assay was applied to analyze thermostability in imitation of differential scanning fluorimetry (DSF or ThermoFluor™) assays (Ahmad S. et al. (2012) Protein Science 21: 433-446; Pantoliano et al. (2001) J. Biomol. Screen 6: 429-440; Niesen et al. (2007) Nat. Protoc. 2: 2212-21). This assay is based on the observation that hydrophobic fluorescent dyes, such as Sypro™ Orange (Life Technologies, cat. No. S6651), increase their fluorescence when they bind to hydrophobic patches on a protein.
Proteins were tested by mixing a solution of each protein in PBS (Gibco) with a 160x solution of Sypro™ Orange (diluted in water from a 5000X DMSO stock as provided by the supplier). The sample volume was adjusted to 20 µL with PBS. Typical conditions contained 0.8 mg/mL protein and 8x Sypro™ Orange in the final mixture, but protein concentrations could be varied between 0.4 mg/mL and 1.2 mg/mL. Samples were dispensed in 96-well PCR plates (BioRad Semi-Skirt 96 white) and shortly centrifuged to remove air bubbles. […] For excitation and quantification of fluorescence, filters for wavelengths of 485 nm and 575 nm were chosen. […] In curves of fluorescence intensity against temperature, the inflection point was chosen as the measure for the melting temperature (Tm).

B1: 252 (protein)
chain: GHPIPDSSPLLQFGGQVRQRYLYTDDAQQTEAHLEIREDGTVGGAADQSPESLLQLKALKPGVIQILGVKTSRFLCQRPDGALYGSLHFDPEACSFRELLLEDGYNVYQSEAHGLPLHLPGNKSPHRDPAPRGPARFLPLPGLPPAPPEPPGILAPQPPDVGSSDPLSMVGPSQGRSPSYAS
modifications: G-FGF21
[1]
  t½ mouse: 42 min
[2]
  Tm: 43.1 * °C

— patent US20230265152A1, “GLP-1R AGONIST / FGF21 FUSION PROTEINS” (SANOFI, priority 2020, published 2023)
